The target in series [1] is T1, TmaSSB (Thermotoga maritima MSB8 (DSM 3106), UniProt Q9WZ73 1-141).
T1 sequence: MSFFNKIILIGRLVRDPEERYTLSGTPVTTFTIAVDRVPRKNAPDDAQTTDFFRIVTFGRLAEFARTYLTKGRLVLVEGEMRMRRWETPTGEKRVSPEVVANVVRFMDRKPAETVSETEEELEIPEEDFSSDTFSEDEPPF
Briefly: fluorescence titration (Trp quenching); 2 mM NaCl; cooperative affinity omega*K; site size 68 +/- 2 nt; quench 95%; 20 mM Tris-HCl pH 7.5, 1 mM EDTA, 2 or 100 mM NaCl, 25°C; EMSA 10 pmol oligo (1.5 pmol M13) with 10-200 pmol SSB in 10 µl, 2% agarose in TAE; titration 1 nM SSB with 0-0.8 nM (dT)76. Conditions: protein: recombinant; tags: none stated (NdeI/HindIII in pET30Ek/LIC, start and stop codon in primers); chain copies: 4; single strand. (A gel shift assay detects complexes by their altered migration in electrophoresis.)

The target in series [2] is T2, TneSSB (Thermotoga neapolitana DSM 4359, UniProt D1M925 1-142).
T2 sequence: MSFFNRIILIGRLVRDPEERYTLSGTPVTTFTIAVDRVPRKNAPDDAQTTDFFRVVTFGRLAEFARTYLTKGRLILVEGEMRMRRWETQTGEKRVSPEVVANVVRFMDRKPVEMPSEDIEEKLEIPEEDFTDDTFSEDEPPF
The series is described as above. Conditions: protein: recombinant; tags: none stated (NdeI/HindIII in pET30Ek/LIC, start and stop codon in primers); chain copies: 4; single strand.

The target in series [3] is T1, TmaSSB. Nature of the series: EMSA (agarose); 2 or 100 mM NaCl; one tetramer; 20 mM Tris-HCl pH 7.5, 1 mM EDTA, 2 or 100 mM NaCl, 25°C; EMSA 10 pmol oligo (1.5 pmol M13) with 10-200 pmol SSB in 10 µl, 2% agarose in TAE; titration 1 nM SSB with 0-0.8 nM (dT)76. Conditions: protein: recombinant; tags: none stated (NdeI/HindIII in pET30Ek/LIC, start and stop codon in primers); chain copies: 4; label: 5'-fluorescein (EMSA); single strand.

The target in series [4] is T2, TneSSB. The series is described as above. Conditions: protein: recombinant; tags: none stated (NdeI/HindIII in pET30Ek/LIC, start and stop codon in primers); chain copies: 4; label: 5'-fluorescein (EMSA); single strand.
Series [5] concerns the molecule itself. Briefly: SEC; FPLC analytical gel filtration on a Superdex HR 75 column, calibrated with bovine albumin, ovalbumin, carbon anhydrase and cytochrome C; oligomeric state in solution. For orientation: Size exclusion chromatography separates by hydrodynamic size, large species first.
For series [6], the target named is T1, TmaSSB. Briefly: EMSA (agarose); 2 or 100 mM NaCl; two tetramers at high protein; 20 mM Tris-HCl pH 7.5, 1 mM EDTA, 2 or 100 mM NaCl, 25°C; EMSA 10 pmol oligo (1.5 pmol M13) with 10-200 pmol SSB in 10 µl, 2% agarose in TAE; titration 1 nM SSB with 0-0.8 nM (dT)76. Conditions: protein: recombinant; tags: none stated (NdeI/HindIII in pET30Ek/LIC, start and stop codon in primers); chain copies: 4; label: 5'-fluorescein (EMSA); single strand.

For series [7], the target named is T2, TneSSB. The series is described as above. Conditions: protein: recombinant; tags: none stated (NdeI/HindIII in pET30Ek/LIC, start and stop codon in primers); chain copies: 4; label: 5'-fluorescein (EMSA); single strand.

B1: (dT)76 (titration) (ssDNA)
DNA: TTTTTTTTTTTTTTTTTTTTTTTTTTTTTTTTTTTTTTTTTTTTTTTTTTTTTTTTTTTTTTTTTTTTTTTTTTTT
Consider B1, for which the binding result in the series with TmaSSB [1] and in the series with TneSSB [2] was “binds” throughout.

B2: (dT)76 (ssDNA)
DNA: TTTTTTTTTTTTTTTTTTTTTTTTTTTTTTTTTTTTTTTTTTTTTTTTTTTTTTTTTTTTTTTTTTTTTTTTTTTT
With B2, the binding result in the series with TmaSSB [3] and with TneSSB [4] was “binds” throughout.

B3: single-stranded DNA-binding protein from Thermotoga maritima (TmaSSB) (natural protein, UniProt Q9WZ73 1-141, looked up)
chain: MSFFNKIILIGRLVRDPEERYTLSGTPVTTFTIAVDRVPRKNAPDDAQTTDFFRIVTFGRLAEFARTYLTKGRLVLVEGEMRMRRWETPTGEKRVSPEVVANVVRFMDRKPAETVSETEEELEIPEEDFSSDTFSEDEPPF
notes: ssb gene amplified with primers from the ATG start codon to the TGA stop codon, cloned between NdeI and HindIII of pET30Ek/LIC (pETSSBTma); No tag is mentioned; cloning between NdeI and HindIII with the gene's own stop codon probably leaves out the vector's tags (surmised); also called T. maritima SSB; source: E. coli BL21(DE3)pLysS, purified (heat treatment at 80°C, QAE-cellulose, …)
For B3, in series [5], the “stoichiometry N” value came out at 4.

Regarding TTTTTTTTTTTTTTTTTTTTTTTTTTTTTTTTTTT (ssDNA) [(dT)35], the binding result in the series with TmaSSB [3] and with TneSSB [4] was “binds” throughout.

B4: (dT)120 (ssDNA)
DNA: TTTTTTTTTTTTTTTTTTTTTTTTTTTTTTTTTTTTTTTTTTTTTTTTTTTTTTTTTTTTTTTTTTTTTTTTTTTTTTTTTTTTTTTTTTTTTTTTTTTTTTTTTTTTTTTTTTTTTTTT
B4: the binding result with TmaSSB [6] and with TneSSB [7] was “binds” each time.

B5: (dT)60 (ssDNA)
DNA: TTTTTTTTTTTTTTTTTTTTTTTTTTTTTTTTTTTTTTTTTTTTTTTTTTTTTTTTTTTT
Consider B5, for which the binding result with TmaSSB [3] and with TneSSB [4] was “binds” each time.

B6: single-stranded DNA-binding protein from Thermotoga neapolitana (TneSSB) (natural protein, UniProt D1M925 1-142, looked up)
chain: MSFFNRIILIGRLVRDPEERYTLSGTPVTTFTIAVDRVPRKNAPDDAQTTDFFRVVTFGRLAEFARTYLTKGRLILVEGEMRMRRWETQTGEKRVSPEVVANVVRFMDRKPVEMPSEDIEEKLEIPEEDFTDDTFSEDEPPF
notes: ssb gene amplified with primers from the ATG start codon to the TGA stop codon, cloned between NdeI and HindIII of pET30Ek/LIC (pETSSBTne); No tag is mentioned; cloning between NdeI and HindIII with the gene's own stop codon probably leaves out the vector's tags (surmised); also called T. neapolitana SSB; source: E. coli BL21(DE3)pLysS, purified (heat treatment at 80°C, QAE-cellulose, …)
B6: the “stoichiometry N” value in series [5] worked out at 4.

The term stoichiometry N denotes the number of molecules, sites or subunits per partner or assembly.
